Data published in doi:10.1101/2022.12.02.518935.

Target: Biotinylated AF546-labeled BtuF (BtuF*), construct of the smFRET-Q experiments (E. coli)
Assay: smFRET-Q

Chain of Wild type BtuCD reconstituted in nanodiscs (P06609 whole entry): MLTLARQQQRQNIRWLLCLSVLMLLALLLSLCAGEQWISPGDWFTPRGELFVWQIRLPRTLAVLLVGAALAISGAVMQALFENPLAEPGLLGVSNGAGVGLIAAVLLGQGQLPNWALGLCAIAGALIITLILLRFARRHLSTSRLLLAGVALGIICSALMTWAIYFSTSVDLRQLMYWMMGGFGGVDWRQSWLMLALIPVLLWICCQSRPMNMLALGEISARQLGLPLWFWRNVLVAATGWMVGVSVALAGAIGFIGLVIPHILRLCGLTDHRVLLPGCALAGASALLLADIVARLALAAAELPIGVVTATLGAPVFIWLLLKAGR
Chain of Wild type BtuCD reconstituted in nanodiscs (P06611 whole entry): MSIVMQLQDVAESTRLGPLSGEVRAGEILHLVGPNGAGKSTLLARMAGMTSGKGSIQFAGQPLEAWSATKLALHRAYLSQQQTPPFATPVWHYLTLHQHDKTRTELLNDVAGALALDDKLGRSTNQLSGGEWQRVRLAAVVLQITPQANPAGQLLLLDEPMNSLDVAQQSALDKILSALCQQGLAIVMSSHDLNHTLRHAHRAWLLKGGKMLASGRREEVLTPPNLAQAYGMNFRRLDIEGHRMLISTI

Wild type BtuCD reconstituted in nanodiscs (from UniProt P06609 1-326; P06611 1-249) (complex)
occupancy time of the H state (locked BtuCD-F* complex) with 0.5 mM Mg-ATP: 1 s
